Laboratory results taken from patent publication US20220227882A1 (TRUSTEES OF TUFTS COLLEGE, published 2022).
Numbering of substitutions follows the chain as printed.

Tests used:
[1] = target: T1, Q447A (Homo sapiens, UniProt P78325); assay: high-throughput flow cytometry, HEK293 cells with mutant ADAM8, high stringency; range in parentheses
T1 construct: expressed on HEK293 cells; also called human ADAM8 point mutant Q447A
T1 sequence (ADAM8, looked up): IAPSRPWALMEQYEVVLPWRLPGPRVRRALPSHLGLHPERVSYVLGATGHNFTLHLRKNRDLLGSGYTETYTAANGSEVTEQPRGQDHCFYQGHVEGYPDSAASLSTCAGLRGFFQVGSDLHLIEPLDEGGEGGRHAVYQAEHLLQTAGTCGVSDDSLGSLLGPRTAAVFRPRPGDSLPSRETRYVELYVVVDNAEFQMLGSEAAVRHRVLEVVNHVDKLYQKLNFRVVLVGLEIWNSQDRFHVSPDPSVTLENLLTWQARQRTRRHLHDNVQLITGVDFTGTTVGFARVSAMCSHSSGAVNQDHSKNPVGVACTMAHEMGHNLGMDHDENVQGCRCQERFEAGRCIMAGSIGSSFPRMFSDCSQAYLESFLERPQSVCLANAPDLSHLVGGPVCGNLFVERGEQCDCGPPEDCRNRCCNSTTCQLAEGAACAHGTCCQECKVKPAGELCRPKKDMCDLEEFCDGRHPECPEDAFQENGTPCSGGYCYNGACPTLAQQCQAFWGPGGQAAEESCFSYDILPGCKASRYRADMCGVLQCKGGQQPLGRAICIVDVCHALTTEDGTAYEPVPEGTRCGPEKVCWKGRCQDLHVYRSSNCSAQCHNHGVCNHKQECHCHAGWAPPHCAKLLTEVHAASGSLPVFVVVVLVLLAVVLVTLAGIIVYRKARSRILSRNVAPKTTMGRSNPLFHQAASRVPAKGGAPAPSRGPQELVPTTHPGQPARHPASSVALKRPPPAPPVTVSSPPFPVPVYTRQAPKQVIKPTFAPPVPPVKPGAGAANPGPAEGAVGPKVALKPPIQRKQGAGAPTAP
Method: (§1) A variety of experimental parameters were optimized for high-throughput flow cytometry including blocking buffer, and primary and secondary antibody concentrations, to identify the optimal conditions for screening. Through these studies ADP2 and ADP13 were determined to be high affinity binding antibodies.
(§2) Thus, for these studies antigen-binding fragments (Fabs) of ADP2 and ADP13, which bind with lower affinity than the full antibody, were generated. In addition, higher binding stringency conditions were tested, such as increased pH, salinity, and temperature, and/or increased washing, to weaken binding sufficiently to allow identification of critical binding residues in flow cytometry. The final experimental flow cytometry conditions were: primary antibody incubation with ADP2 Fab (0.50 μg/ml), ADP13 Fab (5.00 μg/ml) and Control Ab (0.16 μg/ml) for 60 minutes in flow cytometry buffer containing 10% goat serum in PBS (Ca²⁺ and Mg²⁺ free). […] Samples were washed three times after primary antibody incubation and twice after secondary antibody incubation with PBS (Ca²⁺ and Mg′ free). Next, HEK293 cells expressing WT or mutated ADAM8 proteins or EV DNA were incubated with ADP2 or ADP13 Fabs or Control Ab at their optimal concentrations. Fab binding was detected using Alexa Fluor 488-conjugated secondary antibodies and mean cellular fluorescence determined using the Intellicyt iQue flow cytometry platform. […] This counter-screen strategy facilitates the exclusion of mutants that are locally misfolded or that have an expression defect. Binding of each test Fab to each mutant clone in the alanine scanning library was determined, in duplicate, by high-throughput flow cytometry.

[2] = target: T2, R482A (Homo sapiens, UniProt P78325); assay: as above
T2 construct: expressed on HEK293 cells; also called human ADAM8 point mutant R482A
T2 sequence (ADAM8, looked up): T1 sequence (ADAM8, looked up) with A431Q, R466A
Method: as §1, §2

Binding Reactivity (% WT) [1]: 46.5 % WT | Binding Reactivity (% WT) [2]: 113 % WT
B1: ADP2 Fab (Fab, V domains shown)
VH: EVKLVESGGGLVQPGGSLSLSCAASGFSFPDYYMSWVRQPPGKALEWLGFIRDSANGYTTEYIASVKGRFTFSRDNSQSILYLQMNALRAEDSATYYCARYSRYYGMDYWGQGTSVTVSS
VL: SIVMTQTPKILLVSAGDRVTITCKASQTVNYDVAWYQQKPGQSPKPVIYFASNRYTGVPDRFTGSGFGTDFTFTISTVQAEDLAVYFCQQDYSAPWTFGGGTKLEIK
